± gives the standard deviation.
Assay: protein stability index of a GFP-peptide fusion (GPS, HEK-293T) (PSI 1-6); higher = more stable
[1] = treatment: DMSO, c terminus: a fixed tail appended
[2] = treatment: MLN4924 1 uM, 8 h, c terminus: a fixed tail appended
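Note: 24-mer peptide tiles fused after GFP, lentivirally expressed, FACS-sorted into six equal bins by GFP/DsRed ratio, decoded by Illumina sequencing, PSI is the read-weighted mean bin number.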

Sequence VIFALCWFPLHLSRILKKTVYNEM [EDNRA] has a protein stability index [1] of 3 ± 0.64 and a protein stability index [2] of 2.92 ± 0.68.
VIKMLVNDNKVLRYLAVLESPIPE [EFHC1] gave a protein stability index [1] of 2.32 ± 0.31.
For VKDTDDVPMILVGNKCDLEDERVV [RAP1B], the protein stability index [1] was 4.65 ± 0.45 and the protein stability index [2] was 5.02 ± 0.16.
For VKKCLELFSELAEDKENYKKFYEA [HSP90AB1], the protein stability index [1] was 2.54 ± 0.34 and the protein stability index [2] was 2.74 ± 0.33.
Sequence VKPENFLIGRPGNKTQQVIHIIDF [CSNK1G3] has a protein stability index [1] of 2.4 ± 0.72 and a protein stability index [2] of 2.5 ± 0.34.
VLALFVYVAWNEGSRQWREGKQD [VMA21] showed a protein stability index (treatment: DMSO, c terminus: native) of 2.51 ± 0.49 and a protein stability index (treatment: MLN4924 1 uM, 8 h, c terminus: native) of 2.85 ± 1.1.
Work on VLGPLVALIICYNWLHRRLAGQFL [MOG] yielded a protein stability index [1] of 3.15 ± 0.19 and a protein stability index [2] of 2.92 ± 0.13.
In the case of VLPCIQQIQRISLNTLTLNVKSEK [FLOT1], the protein stability index [1] is reported as 2.84 ± 0.14 and the protein stability index [2] is reported as 2.98 ± 0.24.
Work on VLQALFYLLDRAVDSFETQRNGLV [PTPN9] yielded a protein stability index [1] of 2.45 ± 0.98 and a protein stability index [2] of 2.66 ± 0.62.
Work on VLRAEHRGFQEENKALWENNKLKL [CBY2] yielded a protein stability index [1] of 3.83 ± 0.45 and a protein stability index [2] of 3.89 ± 0.28.
VLSSTPDHSFSLELGSEVDITEGD [ATF4] showed a protein stability index [1] of 5.32 ± 0.43 and a protein stability index [2] of 5.44 ± 0.11.
VNKITFSEQCYYIFGDLCGNMANL [DVL3] showed a protein stability index [1] of 2.66 ± 0.38 and a protein stability index [2] of 2.36 ± 0.37.
Sequence VNPWKREVKLLLSSETPIEGKNMS [APMAP] has a protein stability index [1] of 3.44 ± 0.25 and a protein stability index [2] of 3.62 ± 0.42.
Work on VNRTTRTNSTPLRAACFDGHLEVV [FEM1A] yielded a protein stability index [1] of 2.9 ± 0.35 and a protein stability index [2] of 2.74 ± 0.34.
For VPLCSCRMETPKSREITTLANNQC [EHMT1], the protein stability index [1] was 2.62 ± 0.17 and the protein stability index [2] was 2.81 ± 0.24.
Work on VPNAKKLRRKEQLWEKLAKQGELP [NOP53] yielded a protein stability index [1] of 3.35 ± 0.33 and a protein stability index [2] of 3.51 ± 0.39.
For VPSESEPPALQNNLLSPLLTGTES [NFE2L1], the protein stability index [1] was 4.92 ± 0.1 and the protein stability index [2] was 5.07 ± 0.18.
In the case of VQARMLSSTTILVQWKEPEEPNGQ [PTPRD], the protein stability index [1] is reported as 3.27 ± 0.34 and the protein stability index [2] is reported as 3.19 ± 0.35.
For VQITGQPNILFYASTVLKSVGFQS [SLC2A12], the protein stability index [1] was 3.12 ± 0.57 and the protein stability index [2] was 2.58 ± 0.45.
For VQKEHEEYMKNLLKVGGILVMPLE [PCMTD2], the protein stability index [1] was 2.69 ± 0.21 and the protein stability index [2] was 2.7 ± 0.17.
Work on VQKNILAAASPYIRTKLNYNPPKD [GAN] yielded a protein stability index [1] of 2.97 ± 0.34 and a protein stability index [2] of 3.24 ± 0.38.
VQREKDLPNYNWNSFGLRFGKREA [KISS1] showed a protein stability index [1] of 3.28 ± 0.12 and a protein stability index [2] of 3.19 ± 0.18.
Sequence VRTSYQPSSPGRFTKETTQKNFNN [TRIM29] has a protein stability index [1] of 3.93 ± 0.15 and a protein stability index [2] of 3.88 ± 0.22.
With VSDSLTWREFHYIQSKLGIVSLLL [STEAP1] the protein stability index [1] was 2.45 ± 0.54 and the protein stability index [2] was 2.18 ± 0.25.
In the case of VSLTSPSAPPTSRTSSGNVWVTHE [PPFIA4], the protein stability index [1] is reported as 3.35 ± 0.21 and the protein stability index [2] is reported as 3.47 ± 0.32.
With VSSSVIEQLFFVRLVGKTPIETLI [NR2F2] the protein stability index [1] was 2.74 ± 0.58 and the protein stability index [2] was 3.05 ± 0.37.
Work on VSTGSTDNSPTSNSLEGGTDATAF [ADAMTSL2] yielded a protein stability index [1] of 4.97 ± 0.28 and a protein stability index [2] of 5.31 ± 0.28.
In the case of VTTRQVRTIVEEVQDGKVISSREQ [KRT17], the protein stability index [1] is reported as 4.87 ± 0.3 and the protein stability index [2] is reported as 4.87 ± 0.36.
Sequence VVAILAAACLLQLDGLIQQCGETM [GMCL1] has a protein stability index [1] of 3.23 ± 0.42 and a protein stability index [2] of 2.92 ± 0.39.
In the case of WELGGGTSLLDLISIPITGDTLRT [DYNC2LI1], the protein stability index [1] is reported as 2.22 ± 0.32 and the protein stability index [2] is reported as 2.36 ± 0.22.
WEVQVSPTCPVCKDRASPADLRTN [TRIM35] gave a protein stability index [1] of 3.2 ± 0.43 and a protein stability index [2] of 3.61 ± 0.27.
Sequence WEYPGSQGSPAVDKERFTTLVQDL [CHIT1] has a protein stability index [1] of 3.9 ± 0.25 and a protein stability index [2] of 3.89 ± 0.19.
WGKRKNKPKMNYEKLSRGLRYYYD [ETS2] gave a protein stability index [1] of 2.52 ± 0.26 and a protein stability index [2] of 2.51 ± 0.43.
Work on WLYCYDPVMDVWARKQDMNTKRAI [KLHL14] yielded a protein stability index [1] of 2.07 ± 0.28 and a protein stability index [2] of 2.53 ± 0.55.
Work on WMPPPSRADSFKVSYQLADGGEPQ [TNXB] yielded a protein stability index [1] of 4.03 ± 0.44 and a protein stability index [2] of 4.23 ± 0.64.
With WSVTGKAEPAMPGRLYVHPDSPAT [TBX5] the protein stability index [1] was 3.67 ± 0.17 and the protein stability index [2] was 3.62 ± 0.22.
WTRITCAEEGWSPTPKCLRLCFFP [CFHR2] gave a protein stability index [1] of 2.82 ± 0.71 and a protein stability index [2] of 2.6 ± 0.46.
With WYLKEEDHYQRVKREREKEDIALN [RHOBTB1] the protein stability index [1] was 3.94 ± 0.18 and the protein stability index [2] was 3.955 ± 0.027.
Sequence WYQVRCLFQSPLFAKAGDTLSGTC [CARM1] has a protein stability index [1] of 2.77 ± 0.72 and a protein stability index [2] of 2.35 ± 0.53.
In the case of WYSPYAKTLQPTKQPNCSSLFKLK [PLD5], the protein stability index [1] is reported as 2.32 ± 0.21 and the protein stability index [2] is reported as 2.79 ± 0.21.
For YAPVGFCLLVLRLFLGIHVFLVSC [AUP1], the protein stability index [1] was 3.14 ± 1 and the protein stability index [2] was 2.88 ± 0.35.
YCLLSDHGCEYSCVNMDRSFACQC [MATN2] gave a protein stability index [1] of 2.81 ± 0.54 and a protein stability index [2] of 2.95 ± 0.59.
Sequence YETKKHLVQLPNINRVSTCYSEEI [PPEF2] has a protein stability index [1] of 3.33 ± 0.32 and a protein stability index [2] of 3.23 ± 0.53.
YFTKSGFHPDPRQKALYRRLATVH [CLPTM1] gave a protein stability index [1] of 2.12 ± 0.41 and a protein stability index [2] of 2.35 ± 0.22.
YFYMSCLVKHKRIHSREKRGDSVK [ZNF649] gave a protein stability index [1] of 1.73 ± 0.16 and a protein stability index [2] of 2.38 ± 0.55.

Source: the supplement of paper PMC10567573
